To fix the notation:
B1: VH:VL chains; a variant is named by its letters at X, in order (parent)
chain 1: QVQLVQSGAEVKKPGASVKVSCKASGYTFTDYXMHWVRQAPGQGLEWMGXVNPNXXXTTYNQKFEGRVTMTTDTSTSTAYMELRSLRSDDTAVYYCARXNXLDXWGQGTTVTVSS
chain 2: DIQMTQSPSSLSASVGDRVTITCSVSSSVSSIYLHWYQQKPGKAPKLLIYSTSNLASGVPSRFSGSGSGTDFTLTISSLQPEDFATYYCQVYSGYPLTFGGGTKVEIK

Variants of B1 are the subject of this data set. Nature of the data set: yeast display scFab, FACS + sequencing. In short, it runs like this:
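Non-specific binding was called from deep sequencing of sorted yeast cells displaying a heavy-chain CDR mutant scFab library. Cells labelled with anti-Myc and biotinylated ovalbumin (260 μg/mL in PBSB, 3 h, room temperature) or soluble membrane proteins (130 μg/mL, 20 min on ice) were FACS-sorted, collecting the top 25% and bottom 10% of binders from two replicates. A sequence was positive when present in ≥3 of 4 pooled positive samples and absent from all negatives, and negative under the converse rule.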
Consider YAGKTSAD, for which the non-specific binding call is “binds”.

Consider YARADDAS, for which the non-specific binding call is “no binding”.

Consider FRGRSSVA, for which the non-specific binding call is “binds”.

With VRGGGSAA, the non-specific binding call was “binds”.

As to YARAGSVS, the non-specific binding call is recorded as “binds”.

Consider DRARTFVA, for which the non-specific binding call was “binds”.

Take FTRTNFLS: the non-specific binding call is “binds”.

As for DAGGGSSD, the non-specific binding call is recorded as “no binding”.

Regarding DKRKGVSD chain 1 S88F, the non-specific binding call is “binds”.

On to DAAGADWY, for which the non-specific binding call is reported as “no binding”.

Take DTAESDLD: the non-specific binding call was “no binding”.

In the case of ATTKSDVA, the non-specific binding call was “no binding”.

As for DEEASSWA, the non-specific binding call is recorded as “no binding”.

VAARGFGS: the non-specific binding call was “no binding”.

For FRERNAAA, the non-specific binding call is “binds”.

Take FREGSASV: the non-specific binding call is on record as “binds”.

On to VKREASVV, for which the non-specific binding call is recorded as “binds”.

On to YRRGSSVV, for which the non-specific binding call is listed as “binds”.

For the variant YRRESSGV, the non-specific binding call is given as “binds”.

AATTDSVD: the non-specific binding call was “no binding”.

As to SEARSDAD, the non-specific binding call is “no binding”.

With YERESAAV, the non-specific binding call is given as “no binding”.

As to YRAGDALD, the non-specific binding call is reported as “no binding”.

On to YARTGFGA, for which the non-specific binding call was “binds”.

In the case of YRRGGSLS, the non-specific binding call is “binds”.

On to VRTEDAWA, for which the non-specific binding call is on record as “no binding”.

Regarding VEERDAVA, the non-specific binding call was “no binding”.

In the case of VEAGDDSA, the non-specific binding call is listed as “no binding”.

Consider DTKGDSVS, for which the non-specific binding call is recorded as “no binding”.

Regarding FRGKGASD, the non-specific binding call is listed as “binds”.

Consider FAAETDVF, for which the non-specific binding call was “no binding”.

AREKGSAA: the non-specific binding call was “binds”.

For the variant SKGKGAGF, the non-specific binding call is on record as “binds”.

For ARGRGSVA, the non-specific binding call is on record as “binds”.

In the case of YTGTSDVS, the non-specific binding call is recorded as “no binding”.

DRAGDDGY: the non-specific binding call was “no binding”.

Turning to YREKGSAA, the non-specific binding call is reported as “binds”.

In the case of FAKAGFVA, the non-specific binding call was “binds”.

For FKKGDAVS, the non-specific binding call was “binds”.

In the case of YAGRGDAS, the non-specific binding call was “no binding”.

Consider VKGRGSWS, for which the non-specific binding call is on record as “binds”.

On to YRRRGAWS, for which the non-specific binding call is “binds”.

Consider YRRRGAWA, for which the non-specific binding call is “binds”.

For VTGTGDWF, the non-specific binding call is recorded as “no binding”.

SARTDFWF chain 1 K19N: the non-specific binding call is listed as “binds”.

On to DREEGAGS, for which the non-specific binding call was “no binding”.

Take SEARSSGV: the non-specific binding call is “no binding”.

In the case of ATGRADWA, the non-specific binding call is listed as “no binding”.

Take YRAKGALA: the non-specific binding call is reported as “binds”.

With FRGGGSAA, the non-specific binding call was “binds”.

On to YKGAAFWA, for which the non-specific binding call is given as “binds”.

As for ARRRGSAA, the non-specific binding call is given as “binds”.

As for DRAGDYLV, the non-specific binding call is recorded as “no binding”.

On to YRAGDDVA, for which the non-specific binding call was “no binding”.

YTGTSAWA: the non-specific binding call is given as “no binding”.

Consider FTTRGAVA, for which the non-specific binding call is listed as “no binding”.

As for SKAGGALD, the non-specific binding call is recorded as “binds”.

As for VTGTGDGV, the non-specific binding call is reported as “no binding”.

For VAEKGALA, the non-specific binding call is reported as “no binding”.

In the case of YRTGDSAA, the non-specific binding call is “binds”.

With DTATADWA, the non-specific binding call was “no binding”.

In the case of VKGRGSAD, the non-specific binding call was “binds”.

Consider YRGKGFGS, for which the non-specific binding call is “binds”.

For the variant FRRGGSGS, the non-specific binding call is “binds”.

VEGGGSSS: the non-specific binding call was “no binding”.

As for VEGGGSSV, the non-specific binding call was “no binding”.

As for YRTRSSVS, the non-specific binding call is “binds”.

As to YKERASGV, the non-specific binding call is listed as “binds”.

Take VTKGGSSA: the non-specific binding call was “no binding”.

Consider SAREGYSV, for which the non-specific binding call was “binds”.

Regarding ARRTDVAD, the non-specific binding call is given as “binds”.

Take AGRGADLS: the non-specific binding call is listed as “no binding”.

Turning to DAGKGALF, the non-specific binding call was “no binding”.

Take FKGRGSAD: the non-specific binding call is recorded as “binds”.

For VRAGSSLD, the non-specific binding call was “no binding”.

Consider FAARDSGA, for which the non-specific binding call is reported as “no binding”.

Take VRGTGAVY: the non-specific binding call is “binds”.

For the variant YTREGAVA, the non-specific binding call was “no binding”.

Regarding FRGESAAA, the non-specific binding call is recorded as “binds”.

Turning to FEAGDSGA, the non-specific binding call was “no binding”.

Turning to VKKRGAWS, the non-specific binding call was “binds”.

Regarding VTGEDDAA, the non-specific binding call was “no binding”.

For the variant SGGRDSGV, the non-specific binding call is “binds”.

For the variant VEGGGDWA, the non-specific binding call is “no binding”.

With FEKEGDAA, the non-specific binding call is “no binding”.

For the variant VGTKGDAA, the non-specific binding call is “no binding”.

In the case of VGGTSDVV, the non-specific binding call is given as “no binding”.

For the variant VEAGDDAV, the non-specific binding call is reported as “no binding”.

Turning to YRRRGVWA, the non-specific binding call was “binds”.

Take FAARSYGD: the non-specific binding call is on record as “binds”.

Take VKEGGSSA: the non-specific binding call is reported as “no binding”.

For FRGRGSWS, the non-specific binding call is listed as “binds”.

On to YAGKTAWS, for which the non-specific binding call is “binds”.

Consider VKGASDGA, for which the non-specific binding call was “no binding”.

Turning to VTTKSAGD, the non-specific binding call is on record as “no binding”.

For FREGGALD, the non-specific binding call is recorded as “binds”.

With YRRRTAAV, the non-specific binding call is “binds”.

On to SEEEGSGV, for which the non-specific binding call was “no binding”.

With YKAKGSAV, the non-specific binding call was “binds”.

In the case of YKRGDDSS, the non-specific binding call is reported as “no binding”.

With YAGRGDWF, the non-specific binding call is reported as “no binding”.

Consider VTGGDDVY, for which the non-specific binding call is “no binding”.

SREAASLA: the non-specific binding call is given as “no binding”.

Turning to YRRRGAVD, the non-specific binding call was “binds”.

For VETEGDGV, the non-specific binding call is listed as “no binding”.

Regarding YRGRGAWF, the non-specific binding call was “binds”.

On to VKAGGSLY, for which the non-specific binding call is reported as “binds”.

In the case of YKRGDAWD, the non-specific binding call is given as “no binding”.

On to YRREGDWA, for which the non-specific binding call was “binds”.

With VRGGDDWF, the non-specific binding call is reported as “no binding”.

Turning to FARENFLA chain 1 V51A, the non-specific binding call is recorded as “binds”.

With VTGKGDGV, the non-specific binding call is “no binding”.

On to FRGRDALY, for which the non-specific binding call is “binds”.

For FTAGGAAD, the non-specific binding call was “binds”.

As to DAGKGAGD, the non-specific binding call was “no binding”.

Regarding VAEKGDLS, the non-specific binding call was “no binding”.

With VRERGSSF, the non-specific binding call is listed as “no binding”.

As to SKAKGAWS, the non-specific binding call was “binds”.

(Values after the emibetuzumab library of Makowski et al. (2022).)
